Assay results reported in paper PMC9342713.

Target: T1, DitR (Stenotrophomonas maltophilia K279a) (UniProt B2FL17)
T1 sequence: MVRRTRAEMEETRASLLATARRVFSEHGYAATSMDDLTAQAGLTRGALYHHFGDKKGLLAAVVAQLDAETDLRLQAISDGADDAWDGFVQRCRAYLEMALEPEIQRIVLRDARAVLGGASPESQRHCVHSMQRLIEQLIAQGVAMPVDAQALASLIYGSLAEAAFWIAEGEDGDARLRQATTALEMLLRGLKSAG
Assay: DNase I footprinting

Sequence | binding
GGGGGCGGCGAACAGGTCGCGGTAGGGGGTGGCCATCGGGATCTCCAGGGCAGCGGCTTGCCTGGCGCTCCCGGCGCCACGACAATACATACAGAGCGTATGAATAAGAGCCTACATTCATACGCGTCGTATGTAAATAATCATGCACTGCGTATGTAAGGAGCTCCGGATGGTCCGTCGCACCCGCGCCGAAATGGAAGAAAC (double strand) [mfsBC promoter fragment, 204 bp, Box II] | binds
GGGGGCGGCGAACAGGTCGCGGTAGGGGGTGGCCATCGGGATCTCCAGGGCAGCGGCTTGCCTGGCGCTCCCGGCGCCACGACAATACATACAGAGCGTATGAATAAGAGCCTACATTCATACGCGTCGTATGTAAATAATCATGCACTGCGTATGTAAGGAGCTCCGGATGGTCCGTCGCACCCGCGCCGAAATGGAAGAAAC (double strand) [mfsBC promoter fragment, 204 bp, Box I] | binds
